Measurements: publication PMC5923241, “The ng_ζ1 toxin of the gonococcal epsilon/zeta toxin/antitoxin system drains precursors for cell wall synthesis” (Nature Communications, 2018)

Target: T1, ngζ_1 toxin (zeta_1) of Neisseria gonorrhoeae, wild type (Neisseria gonorrhoeae, UniProt D5K9G7)
T1 sequence: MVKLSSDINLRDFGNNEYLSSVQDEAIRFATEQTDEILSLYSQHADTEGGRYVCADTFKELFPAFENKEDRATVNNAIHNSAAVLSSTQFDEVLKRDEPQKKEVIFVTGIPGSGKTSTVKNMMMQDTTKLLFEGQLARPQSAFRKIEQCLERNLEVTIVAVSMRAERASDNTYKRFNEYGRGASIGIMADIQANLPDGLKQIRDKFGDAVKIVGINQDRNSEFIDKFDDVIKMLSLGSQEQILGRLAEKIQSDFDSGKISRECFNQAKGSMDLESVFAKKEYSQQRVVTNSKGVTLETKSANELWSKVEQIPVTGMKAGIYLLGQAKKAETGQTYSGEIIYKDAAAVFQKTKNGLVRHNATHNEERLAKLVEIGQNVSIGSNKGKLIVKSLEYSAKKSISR
Assay: crystal structure
Conditions: both partners purified

B1: ngε_1 antitoxin (epsilon_1) of Neisseria gonorrhoeae (natural protein)
chain: MNKVEPQESNAIRMIKEACEKNRRMMTDEAFRKEVEKRLYAGPSPELLAKLRVLWAANKEQ
notes: also called ng_ɛ1; source: E. coli BL21(DE3)-RIL, purified as ngε_1/ngζ_1 complex (Ni-NTA, standard chromatographic procedures)
  binding result: binds
